± gives the half width of the 95% confidence interval.
Assay: folding stability dG unfold from trypsin proteolysis; higher = more stable
Summary of the method: (§1)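 Bayesian fitting of sequencing counts gave K50 for each design. Unfolding free energy followed by setting this against a sequence-predicted unfolded-state K50 and a shared folded-state K50, either per protease or with trypsin and chymotrypsin combined. The designs, under 80 residues and lacking cysteine, were digested in a PA-tagged cDNA display format at 11 threefold-diluted protease concentrations and without protease, and only those with AlphaFold2 dimer inter-PAE above 15 were kept.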

Sequence	folding stability dG unfold [kJ/mol]
SAGGSLKIRTVLRLPSPDGTPYLVFSKEAVIHPVPNIVHINLLVPDKEITLTVPLNEVELLGSPEEVLSSAG [r5_15_TrMRF]	8.93 ± 0.201
SAGGSAGGSMGYLTEPDISVTRTPDGTVTVTTTNTTYDPSTGKKLSTTTTTTTVTLAPDEELLSAGGSAGGS [r12_1038_JUSTAS]	2.52 ± 0.234
SAGGSAGGMPPELSEEEVVRRAVERAVRELGVPLEELPPDWRVDARVERVGDEWLVEVDIELPASAGGSAGG [r6_740_TrMRF]	5.55 ± 0.155
SAGGSAGEAYSVVKASWNPETGTLNIVVKNPSTGEQKVYNIKPGNPVIDFPEGSVIESIEINPSPYSAGGSA [r15_959_TrMRF]	0.992 ± 0.397
SAGGSAGGSKTLVIEEDGELYKVRITNKNGKEIEIVMSADEIKKLPPNAKVEVEKIKLPEKKPSAGGSAGGS [r12_419_TrROS_Hall]	4.92 ± 0.117
SAGGSMVLLSEETIGDIKIKTYKDPNGGVITVIEKPGERTIEFIYPDGILTIEFPPDGTKKYSFDPIGSAGG [r13_246_JUSTAS]	8.4 ± 0.205
SAGGSAGGSASPRTYKYKFTIKYPDGSTSEYEIVDEEDKAKEKIKKEYGAEEIELEIEPEESAGGSAGGSAG [r3_220_JUSTAS]	-0.913 ± 1.72
SAGGSAKRVITIGNDEDQERVQEEAEDNGVKKRPIPGDWDDFLSNLQDNFPEIDRIVIPNGREFEISAGGSA [r15_712_TrROS]	-2.76 ± 1.34
SAGGSAGGSAGITIRDPDNGMWIQIEKTPDMFKVEIEMPGNGKKVEFTFPPGQSLDDLKISAGGSAGGSAGG [r11_772_TrROS]	2.13 ± 0.155
SAGGSMVVVPVEVTVPPEELEQYLEDLRAAYEKPGVKVEILPVEREPIRDPAGRVEEVRAKATIKIVPSAGG [r13_707_JUSTAS]	-2.14 ± 0.879
SAGGSAGGSAEIKIEYTLAPDGTLYVKVEIPNPETGETLVLEGPFDSLEEAIEVAKELEKESAGGSAGGSAG [r3_174_TrMRF]	9.57 ± 0.962
SAEVEVELVEVNGKLFLVMKVKEKDENGKEREYLVVVEVEFDPETKKLTVKVYVFPSKEEAEEALKKLLSAG [r14_500_TrROS_Hall]	16.4 ± 2.18
SAGGSAGGSAGGKTIVLLDEETNELVTIEIDEETGEVKITVVRLKDGKLETKTETIKLPSAGGSAGGSAGGS [r10_756_TrROS_Hall]	8.1 ± 0.381
SAGGSAGGMDAEELAERIANHFQEHFPDMPIKVEVDPDHGWAKIEMRNPNNPGQKHEFEIPIDKSAGGSAGG [r6_478_TrROS]	1.3 ± 0.389
SAGGSAIPPDNVKEEREITDPDDDTKIKVWRYPNDGRYWVQVYNKKGEPKWKQLGPMPANQAEDLISAGGSA [r15_295_TrROS]	0.412 ± 1.46
SAGGIELKINIQMPAEEAVEFIRNFIEELGYEIEDIEVERDPENGMVSVPIEFEIKPVPPVDPEDQKSAGGS [r16_584_TrROS]	0.604 ± 0.318
SAGGSAGGSASKPYTITLPGNYRIEVYELPDGTYLARIYFPDKPGYYALALLTDNSIYIFPSAGGSAGGSAG [r3_170_TrMRF]	12.8 ± 0.293
SAGGSAGGSLIPADRTYKVTVTVEGDKVILTLTDPTSSVTYTLTLDIGPEKVPAGSTLTYTGSSAGGSAGGS [r12_525_JUSTAS]	5.11 ± 0.314
SAGGMPVPVKIEIIDDPGTLIITTPNGKPYTIPIPPNSIEEITIDPEKKVIKIKLKDGEIIIDVPDGSAGGS [r16_104_TrMRF]	6.78 ± 0.301
SAGGAPIEAAPDEEITLTFTLTVRFRGPDGAEGTATFRLTVPVKVEPVPPVPEPRVFRLPDGSEVTLGSAGG [r13_401_TrMRF]	6.18 ± 0.238
SAGGSAGGMVVYLQLPDKEATFFVPPSLSEEEVKERLKKALGDPDAPLTNLKIEEATPEELALESAGGSAGG [r6_122_JUSTAS]	-0.638 ± 0.397

Assay: folding stability dG unfold (combined trypsin and chymotrypsin); higher = more stable
Summary of the method: as §1

Sequence	folding stability dG unfold [kJ/mol]
SAGGSAMTVTTTTSVDPKTGIITTTVSVNGTPVFTGTSIVAPGGEVAETFGTYTYDPETGTVTVTGSAGGSA [r15_770_JUSTAS]	5.99 ± 0.36
APARPPDWVLVDVPVDPTSGLITVHAGDATVTVDLPDGRPAVFYFPRSVSPSDLLAWVVGKARELAEALRAS [r1_25_TrMRF]	9.32 ± 0.669
SGMMNNTTITVTDSEPLPDGSVLTNALTFTSSSAGISSPLDLSLSKTPVSSSTTYTNNGVAPASISLNSLSA [r9_1113_JUSTAS]	2.92 ± 0.205
SAMEITETSLDSSTLYTFPGRRITITTTPDSYTITITLPDGTPVTLNFPPTMPLDEVKKKVIETLLASSSAG [r14_618_JUSTAS]	4.98 ± 0.502
SAGGNWPMRIKIEDPGEEKTIPIPITKVEPNPPPGKLMIFWPDGWVLTFDPKNWRIKKIEPMPDPDEMSAGG [r13_636_TrROS]	4.4 ± 1.55
SAPFQIKEITVNPKDGEAEINFPLENLPPPWMIHIFDKDKGKTQWIPPGGEIEIRAPEGPVKIMIFWRDSAG [r14_134_TrROS]	4.87 ± 1.05
SAGGSAAEETYESDGLTVTVRTERGPDGTVRVVVEVRDRDGPLLATLPFTFKAREDEGLSFSVPFPSAGGSA [r15_950_TrMRF]	5.6 ± 0.318
SEKRMEVEIKIPITMVVPKEMFEPDPDNGRYRFPDNGKPIRPNQVHPMPIEIKGPMPPGDAQKLLKDLLKSA [r9_165_TrROS]	-0.85 ± 0.669
SAGGSAGGSATLTIDELRELLEKLGIDVEELSEEEIAELLKKLYPNARVERNENGELTIHPSAGGSAGGSAG [r3_375_TrROS_Hall]	12.5 ± 0.586
SAGGSAGGSASKNGKELEIKIKVDIYPFPGWGIVRVDYEIEYPDGKEQKFDLWIPVPPGDASAGGSAGGSAG [r3_330_TrROS]	6.95 ± 0.711

— the supplement of paper PMC12764529
